Results reported in article PMC12152876 (The Journal of Biological Chemistry, 2025).

Target: the molecule itself
Assay: cross-linking

B1: Ebola virus nucleoprotein (NP), wild type, expressed for DSP cross-linking (natural protein)
chain: MDSRPQKIWMAPSLTESDMDYHKILTAGLSVQQGIVRQRVIPVYQVNNLEEICQLIIQAFEAGVDFQESADSFLLMLCLHHAYQGDYKLFLESGAVKYLEGHGFRFEVKKRDGVKRLEELLPAVSSGKNIKRTLAAMPEEETTEANAGQFLSFASLFLPKLVVGEKACLEKVQRQIQVHAEQGLIQYPTAWQSVGHMMVIFRLMRTNFLIKFLLIHQGMHMVAGHDANDAVISNSVAQARFSGLLIVKTVLDHILQKTERGVRLHPLARTAKVKNEVNSFKAALSSLAKHGEYAPFARLLNLSGVNNLEHGLFPQLSAIALGVATAHGSTLAGVNVGEQYQQLREAATEAEKQLQQYAESRELDHLGLDDQEKKILMNFHQKKNEISFQQTNAMVTLRKERLAKLTEAITAASLPKTSGHYDDDDDIPFPGPINDDDNPGHQDDDPTDSQDTTIPDVVVDPDDGSYGEYQSYSENGMNAPDDLVLFDLDEDDEDTKPVPNRSTKGGQQKNSQKGQHIEGRQTQSRPIQNVPGPHRTIHHASAPLTDNDRRNEPSGSTSPRMLTPINEEADPLDDADDETSSLPPLESDDEEQDRDGTSNRTPTVAPPAPVYRDHSEKKELPQDEQQDQDHTQEARNQDSDNTQSEHSFEEMYRHILRSQGPFDAVLYYHMMKDEPVVFSTSDGKEYTYPDSLEEEYPPWLTEKEAMNEENRFVTLDGQQFYWPVMNHKNKFMAILQHHQ
stoichiometry N: 2
